# Starred links: 1 amine or outer side, 2 acyl side, 3 side chain; linkers in the order of their positions; H or OH if unused. Positions of bridges follow the written chain, without caps; N, C: chain ends. Non-standard residues stand in square brackets, D forms with d. Primed or numbered codes have the meaning given here. *: point of attachment. PyrS2″ = (S)-3-amino-1-((pent-4-en-1-yloxy)carbonyl)pyrrolidine-3-carboxylic acid (stapling residue), C=CCCCOC(=O)N1CC[C@@](N[*:1])(C(=O)[*:2])C1; (bismethoxyethylamine)GlnR = [bismethoxyethylamine]GlnR, N5,N5-bis(2-methoxyethyl)-L-glutamine, COCCN(CCOC)C(=O)CC[C@H](N[*:1])C(=O)[*:2]; B5(16) = 2-amino-2-(pent-4-en-1-yl)hept-6-enoic acid = 2,2-bis(4-pentenyl)glycine (stitching residue), C=CCCCC(CCCC=C)(N[*:1])C(=O)[*:2]; B5(4) = 2,2-bis(4-pentenyl)glycine = 2-amino-2-(pent-4-en-1-yl)hept-6-enoic acid (stitching residue), C=CCCCC(CCCC=C)(N[*:1])C(=O)[*:2]; TfeGA = (S)-2-amino-3-((carboxymethyl)(2,2,2-trifluoroethyl)amino)propanoic acid, O=C([C@H](CN(CC(=O)[*:3])CC(F)(F)F)N[*:1])[*:2]; PyrS2 = (S)-3-amino-1-((pent-4-en-1-yloxy)carbonyl)pyrrolidine-3-carboxylic acid, C=CCCCOC(=O)N1CC[C@@](N[*:1])(C(=O)[*:2])C1; (AcPpz)GlnR″ = (S)-5-(4-acetylpiperazin-1-yl)-2-amino-5-oxopentanoic acid, CC(=O)N1CCN(C(=O)CC[C@H](N[*:1])C(=O)[*:2])CC1; (Morph)GlnR″ = [Morph]GlnR, (S)-2-amino-5-morpholino-5-oxopentanoic acid, O=C(CC[C@H](N[*:1])C(=O)[*:2])N1CCOCC1; Phe(3-COOH) = N[C@@H](Cc1cccc(C(=O)O)c1)C(=O)O; Phe(2-CF3) = N[C@@H](Cc1ccccc1C(F)(F)F)C(=O)O; Phe(2-Cl) = N[C@@H](Cc1ccccc1Cl)C(=O)O; dαMeGly(allyl) = C=CC[C@@](C)(N)C(=O)O; Bta = N[C@@H](Cc1csc2ccccc12)C(=O)O; αAllylPro = C=CC[C@@]1(C(=O)O)CCCN1; tBuAla = CC(C)(C)C[C@H](N)C(=O)O; 3Thi = N[C@@H](Cc1ccsc1)C(=O)O; Cha = N[C@@H](CC1CCCCC1)C(=O)O; R5 = C=CCCC[C@@](C)(N)C(=O)O; NH(CH2)6NH2 = NCCCCCCN*; Abu = CC[C@H](N)C(=O)O; Aib = CC(C)(N)C(=O)O
# T1: B-cat-Halo (UniProt P35222 1-781)
# T1 sequence (looked up): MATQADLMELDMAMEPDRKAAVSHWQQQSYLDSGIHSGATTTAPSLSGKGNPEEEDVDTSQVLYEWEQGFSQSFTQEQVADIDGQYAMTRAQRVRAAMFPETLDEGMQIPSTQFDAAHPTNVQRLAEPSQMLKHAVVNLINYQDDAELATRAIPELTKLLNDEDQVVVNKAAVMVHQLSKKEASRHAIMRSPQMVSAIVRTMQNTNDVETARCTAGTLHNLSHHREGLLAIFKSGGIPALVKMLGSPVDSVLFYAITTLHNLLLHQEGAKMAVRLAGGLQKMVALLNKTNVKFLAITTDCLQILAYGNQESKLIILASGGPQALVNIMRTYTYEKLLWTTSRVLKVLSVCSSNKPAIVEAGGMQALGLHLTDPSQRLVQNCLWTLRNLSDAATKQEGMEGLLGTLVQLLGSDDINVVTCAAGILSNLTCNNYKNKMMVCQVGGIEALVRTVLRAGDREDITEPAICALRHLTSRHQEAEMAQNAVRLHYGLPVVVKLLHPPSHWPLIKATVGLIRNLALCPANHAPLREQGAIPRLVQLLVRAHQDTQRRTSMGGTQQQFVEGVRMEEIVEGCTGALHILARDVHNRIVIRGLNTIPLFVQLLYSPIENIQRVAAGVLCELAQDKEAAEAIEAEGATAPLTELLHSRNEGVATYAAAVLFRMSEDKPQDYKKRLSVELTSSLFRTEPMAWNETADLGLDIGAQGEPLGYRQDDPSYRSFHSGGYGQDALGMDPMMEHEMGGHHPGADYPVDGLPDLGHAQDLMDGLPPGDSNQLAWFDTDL
# T2: B-cat-Halo (beta-catenin HaloTag fusion expressed in HEK293 cells) (UniProt P35222 1-781)
# T2 sequence (looked up): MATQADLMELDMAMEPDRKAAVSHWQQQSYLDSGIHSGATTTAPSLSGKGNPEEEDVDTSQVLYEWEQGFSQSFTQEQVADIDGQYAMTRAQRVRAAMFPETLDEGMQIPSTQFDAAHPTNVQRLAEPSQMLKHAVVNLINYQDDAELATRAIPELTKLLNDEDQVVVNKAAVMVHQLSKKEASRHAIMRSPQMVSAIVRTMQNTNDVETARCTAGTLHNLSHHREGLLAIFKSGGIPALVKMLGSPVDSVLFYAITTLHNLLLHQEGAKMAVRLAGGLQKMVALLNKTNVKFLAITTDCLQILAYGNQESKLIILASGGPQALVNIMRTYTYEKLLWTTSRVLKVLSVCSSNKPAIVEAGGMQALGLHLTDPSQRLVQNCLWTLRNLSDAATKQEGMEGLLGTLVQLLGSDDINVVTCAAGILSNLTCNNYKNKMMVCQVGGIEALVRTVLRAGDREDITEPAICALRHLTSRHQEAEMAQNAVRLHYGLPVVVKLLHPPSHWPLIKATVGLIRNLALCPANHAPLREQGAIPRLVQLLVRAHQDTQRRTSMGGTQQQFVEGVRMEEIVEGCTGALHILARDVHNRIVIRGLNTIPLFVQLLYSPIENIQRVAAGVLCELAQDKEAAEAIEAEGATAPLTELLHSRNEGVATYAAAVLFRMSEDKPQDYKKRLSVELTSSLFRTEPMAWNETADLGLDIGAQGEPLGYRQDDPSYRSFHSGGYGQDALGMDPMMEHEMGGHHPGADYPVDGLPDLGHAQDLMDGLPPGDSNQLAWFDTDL
# Target: T1, B-cat-Halo
# Assay: cell-based or functional assay
row,Binder,NanoBRET Abs IC50
1,"Ac-[αAllylPro]D[Cha][B5(16)]DDAAFT[PyrS2″][Phe(2-Cl)][Bta]Q-NH2 (staple 1-4, 4-11) [I-1042]",11.4 µM
2,"Ac-[αAllylPro]D[Cha][B5(16)]DDAAFN[PyrS2″][Phe(2-Cl)][Bta]Q-NH2 (staple 1-4, 4-11) [I-1040]",9.3 µM
3,"Ac-[αAllylPro]D[Cha][B5(16)]DDAAFS[PyrS2″][Phe(2-Cl)][Bta]Q-NH2 (staple 1-4, 4-11) [I-1044]",17.6 µM
4,"Ac-[αAllylPro]D[tBuAla][B5(4)]D[TfeGA]AAFT[PyrS2][Phe(2-Cl)][Bta]Q-{NH(CH2)6NH2} (staple 1-4, 4-11) [I-1061]",10.3 µM

# The next lines start with the values.
row,NanoBRET Abs IC50,Binder
1,24.8 µM,"Ac-[αAllylPro]D[Cha][B5(4)]DDAAFS[PyrS2][Phe(2-Cl)][Bta]S-NH2 (staple 1-4, 4-11) [I-1050]"
2,4.7 µM,"Ac-[αAllylPro]D[tBuAla][B5(4)]DDAAFL[PyrS2″][Phe(2-Cl)][Bta]Q-NH2 (staple 1-4, 4-11) [I-1062]"
3,20.5 µM,"Ac-[αAllylPro]D[Cha][B5(16)]DDAAFN[PyrS2″][Phe(2-Cl)][Bta]S-NH2 (staple 1-4, 4-11) [I-1046]"
4,8.8 µM,"Ac-[αAllylPro]D[Cha][B5(4)]DDAAFT[PyrS2″][Phe(2-Cl)][Bta]S-NH2 (staple 1-4, 4-11) [I-1048]"

# Target: T2, B-cat-Halo (beta-catenin HaloTag fusion …)
# Assay: cell-based or functional assay
row,Binder,NanoBRET Abs IC50
1,"Ac-[R5]D[tBuAla][B5(4)]D[Phe(3-COOH)]AAFL[PyrS2″][Phe(2-CF3)][Bta]Q-NH2 (staple 1-4, 4-11; also: -CH=CH- in each staple reduced to -CH2-CH2-) [I-2571]",24 µM
2,"Ac-[R5]D[tBuAla][B5(4)]D[Phe(3-COOH)]AAFL[PyrS2″][Phe(2-CF3)][Bta]Q-NH2 (staple 1-4, 4-11; not fully specified; printed as Ac-R5-Asp-Npg-B5-Asp-3COOHF-Ala-Ala-Phe-Leu-PyrS2-2F3MeF-BztA-Gln-NH2) [I-2565]",21 µM

# Further lines, results first:
row,NanoBRET Abs IC50,Binder
1,7.2 µM,"Ac-[αAllylPro]D[tBuAla][B5(4)]D[Phe(3-COOH)][Aib]AF[Abu][PyrS2″][3Thi][Bta][(AcPpz)GlnR″]-NH2 (staple 1-4, 4-11) [I-2561]"
2,3.8 µM,"Ac-[αAllylPro]D[tBuAla][B5(4)]D[Phe(3-COOH)][Aib]AF[Abu][PyrS2″][3Thi][Bta][(bismethoxyethylamine)GlnR]-NH2 (staple 1-4, 4-11) [I-2559]"
3,17 µM,"Ac-[dαMeGly(allyl)]D[tBuAla][B5(4)]D[Phe(3-COOH)]AAFL[PyrS2″][Phe(2-CF3)][Bta]Q-NH2 (staple 1-4, 4-11) [I-2563]"
4,14.7 µM,"Ac-[αAllylPro]D[tBuAla][B5(4)]D[Phe(3-COOH)][Aib]AF[Abu][PyrS2″][3Thi][Bta][(Morph)GlnR″]-NH2 (staple 1-4, 4-11) [I-2558]"
